According to PMC7319273 (2020):

B1: 2M-10B11 (human monoclonal antibody) (antibody, V domains shown)
VH: EVQLVESGGGLVQPGGSLRLSCAASGFTVSSNYMSWVRQAPGKGLEWVSVIYSGGSTYYADSVKGRFTISRDNSKNTLYLQMNSLRAEDTAVYYCARATWLRGVMDVWGQGTTVTVSS
VL: QSALTQPHSVSESPGKTVTISCTGSSGSIASNYVQWYQQRPGSAPTTVIYEDNQRPSGVPDRFSGSIDSSSNSASLTISGLKTEDEADYYCQSYDSSNHWVFGGGTKLTVL
B2: 4A8 (human monoclonal antibody) (antibody, V domains shown)
VH: EVQLVESGAEVKKPGASVKVSCKVSGYTLTELSMHWVRQAPGKGLEWMGGFDPEDGETMYAQKFQGRVTMTEDTSTDTAYMELSSLRSEDTAVYYCATSTAVAGTPDLFDYYYGMDVWGQGTTVTVSS
VL: EIVMTQSPLSSPVTLGQPASISCRSSQSLVHSDGNTYLSWLQQRPGQPPRLLIYKISNRFSGVPDRFSGSGAGTDFTLKISRVEAEDVGVYYCTQATQFPYTFGQGTKVDIK

Target: SARS-CoV-2 Spike protein extracellular domain (S-ECD), as used in ELISA and BLI (SARS-CoV-2, UniProt P0DTC2 14-1208)
Assay: BLI

| Binder | Kd [nM] |
| --- | --- |
| B1 | 0.342 |
| B2 | 0.996 |
